Experimental data published in paper PMC12210968.

Biological target: Human plasminogen (PLG) protein (human) (UniProt P00747)
Assay: SPR; BIAcore system; PLG and EV-A71 6356 viral particles; the methods tell one set-up (PLG coated, virus diluted) for EnSpire or BIAcore

Substance: Enterovirus A71 (EV-A71) viral particles, strain 6356 (human strain, C2 genotype) (complex)
- Kd: 1.96 nM
- koff: 5.63e-05 s⁻¹
- kon: 28800 M⁻¹ s⁻¹
